Assay [1] addresses T1, recombinant staphylococcal enterotoxin B (SEB), mature protein with N-terminal His6-tag (Staphylococcus aureus COL), P01552.
T1 chain: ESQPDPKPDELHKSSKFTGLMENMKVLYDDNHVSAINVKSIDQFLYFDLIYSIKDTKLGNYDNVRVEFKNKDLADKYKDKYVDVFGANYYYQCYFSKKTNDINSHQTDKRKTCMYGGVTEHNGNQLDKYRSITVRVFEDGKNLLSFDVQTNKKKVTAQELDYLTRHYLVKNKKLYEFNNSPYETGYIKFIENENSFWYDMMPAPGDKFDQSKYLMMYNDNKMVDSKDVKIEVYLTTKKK

Assay [2] deals with T2, recombinant toxic shock syndrome toxin-1 (TSST-1), mature protein with N-terminal His6-tag (Staphylococcus aureus), P06886.
T2 chain: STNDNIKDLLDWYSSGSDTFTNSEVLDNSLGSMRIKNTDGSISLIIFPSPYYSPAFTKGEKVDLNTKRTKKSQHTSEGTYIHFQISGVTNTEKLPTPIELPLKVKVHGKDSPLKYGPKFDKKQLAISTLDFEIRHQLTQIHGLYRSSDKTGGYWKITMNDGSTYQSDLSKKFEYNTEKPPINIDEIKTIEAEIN

B1: pB2-6, immobilized for Surface Plasmon Resonance (peptide)
peptide: DSDSWTLR
modifications: not checked
Broadly, the Kd is the concentration at which binding is half-saturated. For orientation: koff means the first-order rate constant of dissociation. Usually kon stands for the second-order rate constant of association. In the case of B1, in assay [1], the Kd stood at 3900 nM, the koff stood at 0.0019 s⁻¹ and the kon came out at 491 M⁻¹ s⁻¹. In assay [2], the Kd worked out at 1200 nM, the koff turned out to be 0.00304 s⁻¹ and the kon was determined as 2530 M⁻¹ s⁻¹.
